The record followed here is paper PMC6167325, “Outward open conformation of a Major Facilitator Superfamily multidrug/H^+ antiporter provides insights into switching mechanism” (Nature Communications, 2018).

For the test, the target named is T1, MdfA, major facilitator superfamily (MFS) drug/H+ antiporter from Escherichia coli (Escherichia coli, UniProt P0AEY8).
T1 construct: MdfA, multidrug/H+ antiporter of E. coli; wild type; the final model of the complex holds residues Gln14-Lys400; One complex in the asymmetric unit; also called MFS-MDR transporter; source: purified
Description: crystal structure; co-crystals of MdfA in complex with the Fab fragment grown in the lipidic cubic phase; 3.4 Å; space group P6(1)22, one complex in the asymmetric unit; data at 100 K. As to conditions: both partners purified.

T1 sequence (P0AEY8 whole entry, the tested form may be a part): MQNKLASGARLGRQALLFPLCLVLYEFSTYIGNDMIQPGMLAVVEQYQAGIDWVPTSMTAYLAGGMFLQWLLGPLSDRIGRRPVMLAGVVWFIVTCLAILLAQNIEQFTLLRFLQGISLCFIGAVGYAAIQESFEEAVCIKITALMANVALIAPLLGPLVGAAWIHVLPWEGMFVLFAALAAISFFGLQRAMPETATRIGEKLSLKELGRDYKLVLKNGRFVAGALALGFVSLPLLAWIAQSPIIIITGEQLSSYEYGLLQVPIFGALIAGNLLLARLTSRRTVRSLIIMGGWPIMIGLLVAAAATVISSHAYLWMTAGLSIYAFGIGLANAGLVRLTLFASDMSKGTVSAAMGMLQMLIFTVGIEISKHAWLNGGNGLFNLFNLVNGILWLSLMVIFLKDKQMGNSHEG

B1: Fab YN1074 (Fab, V domains shown)
VH: EVQLKESGPGLVAPSQSLSITCTVSGFSFSIYGLHWVRQPPGKGLEWLGMIWGGGRTDYNSALKSRLSISKDNSKSQVFLKMKSLQTDDTAMYYCARNSGYGNLAYWGQGTLVTVSA
VL: DIVMTQSPSSLSASLGERVSLTCRASQDIGYSLNWLQQEPDGTIKRLIYATSNLDSGVPKRFSGSRSGSDYSLTISSLESEDFVDYYCLQYASSPYTFGGGTKLEIK
notes: the model holds residues Leu4-Pro216; the model holds residues Asp1-Arg211; also called Fab fragment
Take B1: the binding result is “binds”.
